Experimental data published in PMC12366701.
Each block holds one molecule with its values, some of them ahead of it.

Legend:
[1] = target: porcine double-stabilized microtubules (dsMTs) (porcine (endogenous in pig brain)) (UniProt P02550); assay: TIRF microscopy binding assay; porcine dsMTs attached to coverslips via an anti-β-tubulin antibody; 100 nM Janelia Fluor 549-labelled TTLL11 variants in 40 mM tris-HCl pH 7.0, 1 mM TCEP, 1 mM MgCl2, 5% glycerol, casein, 10 μM paclitaxel; 22°C; intensity per μm of MT normalized to the control
[2] = target: AspN-treated porcine dsMTs (β-tubulin C-tail removed) (porcine (endogenous in pig brain)) (UniProt P02550); assay: as above

UniProt P02550, sequence (P02550 whole entry, chain 1 of 2): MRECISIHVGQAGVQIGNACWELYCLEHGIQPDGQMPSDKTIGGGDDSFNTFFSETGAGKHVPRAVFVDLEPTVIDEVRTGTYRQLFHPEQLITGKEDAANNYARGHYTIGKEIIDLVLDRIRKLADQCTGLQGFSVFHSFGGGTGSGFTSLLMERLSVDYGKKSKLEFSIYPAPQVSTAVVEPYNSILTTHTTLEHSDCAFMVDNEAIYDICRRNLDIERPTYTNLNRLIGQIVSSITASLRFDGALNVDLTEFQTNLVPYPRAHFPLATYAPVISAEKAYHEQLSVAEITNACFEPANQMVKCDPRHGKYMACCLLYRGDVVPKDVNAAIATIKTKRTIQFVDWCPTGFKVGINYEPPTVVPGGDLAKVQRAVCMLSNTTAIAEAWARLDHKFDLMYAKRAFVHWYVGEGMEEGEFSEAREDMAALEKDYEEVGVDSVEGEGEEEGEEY
UniProt P02550, sequence (P02554 whole entry, chain 2 of 2, further chain): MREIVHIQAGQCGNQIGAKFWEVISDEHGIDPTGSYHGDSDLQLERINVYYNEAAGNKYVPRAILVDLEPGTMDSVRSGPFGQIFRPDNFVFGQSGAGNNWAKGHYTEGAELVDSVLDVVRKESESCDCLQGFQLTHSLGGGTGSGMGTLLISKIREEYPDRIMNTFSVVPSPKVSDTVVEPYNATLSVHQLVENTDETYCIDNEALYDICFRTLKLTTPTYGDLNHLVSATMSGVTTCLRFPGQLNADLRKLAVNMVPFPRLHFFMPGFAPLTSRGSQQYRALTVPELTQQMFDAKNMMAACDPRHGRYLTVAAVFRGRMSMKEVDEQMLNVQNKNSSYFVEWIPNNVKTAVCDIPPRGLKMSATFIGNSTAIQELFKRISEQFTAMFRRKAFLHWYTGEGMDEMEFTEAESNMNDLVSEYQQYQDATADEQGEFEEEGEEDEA

percent reduction of the fluorescence signal intensity [1]: 80%
Molecule: hTTLL11 I594W mutant (from UniProt Q8NHH1 1-710) (enzyme)

percent reduction of the fluorescence signal intensity [1]: 60%
Molecule: hTTLL11 R601E mutant (from UniProt Q8NHH1 1-710) (enzyme)

percent lower fluorescence signal than on intact MTs [2]: 50%
B1: human TTLL11 (hTTLL11), full-length (enzyme)
chain: MRRGSSESELAARWEAEAVAAAKAAAKAEAEATAETVAEQVRVDAGAAGEPECKAGEEQPKVLAPAPAQPSAAEEGNTQVLQRPPPTLPPSKPKPVQGLCPHGKPRDKGRSCKRSSGHGSGENGSQRPVTVDSSKARTSLDALKISIRQLKWKEFPFGRRLPCDIYWHGVSFHDNDIFSGQVNKFPGMTEMVRKITLSRAVRTMQNLFPEEYNFYPRSWILPDEFQLFVAQVQMVKDDDPSWKPTFIVKPDGGCQGDGIYLIKDPSDIRLAGTLQSRPAVVQEYICKPLLIDKLKFDIRLYVLLKSLDPLEIYIAKDGLSRFCTEPYQEPTPKNLHRIFMHLTNYSLNIHSGNFIHSDSASTGSKRTFSSILCRLSSKGVDIKKVWSDIISVVIKTVIALTPELKVFYQSDIPTGRPGPTCFQILGFDILLMKNLKPILLEVNANPSMRIEHEHELSPGVFENVPSLVDEEVKVAVIRDTLRLMDPLKKKRENQSQQLEKPFAGKEDALDGELTSAPDCNANPEAHLPSICLKQVFPKYAKQFNYLRLVDRMANLFIRFLGIKGTMKLGPTGFRTFIRSCKLSSSSLSMAAVDILYIDITRRWNSMTLDQRDSGMCLQAFVEAFFFLAQRKFKMLPLHEQVASLIDLCEYHLSLLDEKRLVCGRGVPSGGRPPHRGPPQEPSPSAQPAGDNPPPRTSCANKLSHPRHTLS
modifications: Janelia Fluor 549-HALO probe on the HALO tag (TIRF assay)
